From the supplement of paper PMC12042874
± gives the uncertainty stated by the source.

Test: amyloid nucleation score (Sup35N fusion, yeast selection) (log enrichment); library NNK1; higher = more nucleation; inactive = no reads after selection
Summary of the method: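 Output and input plasmid inserts were sequenced by Illumina after psi-negative yeast carrying Sup35N fused to peptides of 20 random codons had been induced 24 hours with 100 μM copper sulfate and grown 7 days at 30°C on medium lacking adenine and uracil. The nucleation score is the DiMSum log enrichment of output over input reads, centred on the mode score of non-aggregating sequences. Sequences with under 100 input reads were excluded.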

Substance	amyloid nucleation score
RMVGYVRGMAFRRSVSRRIG	0.311 ± 0.68
RMVIMLMGTHDRPFWGITGS	0.925 ± 0.63
RNCNTT	0.034 ± 0.61
RNIATYYFRSN	0.612 ± 0.48
RNKMMWLIICQGPPYRAWSP	5.07 ± 0.07
RNNCEMCLGFLS	0.827 ± 0.37
RNNIFFF	7.399 ± 0.059
RNNQSHGMNYFFESCVVFYC	7.8 ± 0.047
RNSITEIPCPEMYSNNRLAF	1.13 ± 0.12
RNVRGSSKT	1.37 ± 0.48
RPFLIIKLLGVGLSVKPNCG	-0.158 ± 0.64
RPHECRSWAPVRALSGDAHL	2.91 ± 0.13
RPNCIVINGVKWYSAYWIGI	-0.915 ± 0.67
RPQYLCAAVHEVQRFGHNR	-0.79 ± 0.51
RPSPEGY	1.37 ± 0.84
RPTYMCSGTGDFLHFVFR	4.64 ± 0.053
RPVWHSFHMVFWNSASY	0.172 ± 0.45
RQDQLFPICEDSTT	0.612 ± 0.97
RQDVT	0.281 ± 0.61
RQGLSAGSRYIK	-0.311 ± 0.69
RQIGTAFSDYLHGWCVFSFR	3.88 ± 0.11
RQSWPGYFVCSYQCVRMGNR	-0.084 ± 0.3
RRDSYFCVWYFWGPDEGCPF	4.46 ± 0.1
RRFPRMWGLCMSLFRSHCGS	1.92 ± 0.27
RRIGIGYGLLCRAWAYLYVL	-0.477 ± 1.2

Substance	amyloid nucleation score
RRLLTCGGSPYRQLR	-0.078 ± 0.98
RRLSMIMLFNPLSIWCFAQS	0.408 ± 0.5
RRSCRRTGGTSASKPSRQAF	0.013 ± 0.45
RRSLYYGITIN	-0.337 ± 0.32
RRTTSMERYCR	0.291 ± 0.43
RRWALRYINSATLFFLKVIG	-0.661 ± 0.93
RRWFYLGAFVYKSNTIDVGV	-0.214 ± 0.35
RRYCKLLVWRQLTSYHGRQA	0.527 ± 0.49
RRYRSWGGV	-0.267 ± 0.35
RSADTLVEKNLIYGRWVRKS	0.93 ± 1
RSCELGFDPVKKFFRIRIWG	-0.006 ± 0.47
RSDNSCRRLLEDWRSWRRAV	inactive
RSELI	-0.211 ± 0.36
RSFDLRSSTTLERLFFHMCA	-0.493 ± 0.88
RSGLCFMCSFEKSVSSR	0.255 ± 0.3
RSHGKAEFEHVGLKFIAG	-0.903 ± 1.7
RSICWKSFRRIFFDRW	0.19 ± 0.85
RSIFSWSTR	0.641 ± 0.42
RSIPSMEVSVMK	-0.805 ± 0.73
RSLCHAQRFGWMC	-1.7 ± 1
RSNNSFCIPLSFMCYVYQAT	-0.172 ± 1.6
RSSMYKYV	0.523 ± 0.26
RSSRAPWRSSCGGMF	-0.494 ± 0.48
RSVAHSYT	0.661 ± 0.54
RSVRLMNRVSGWNMWWKDGT	-0.535 ± 1.2

Substance	amyloid nucleation score
RSYSSLSR	0.792 ± 0.58
RTGRAYLWGSWSLEHHNLGG	inactive
RTKCKASISNIPTRWYDP	-0.469 ± 1.2
RTNSSSVCSILKGLSQ	-0.535 ± 1.1
RTPCLSESGPFSGFQHPGDI	-0.66 ± 1.2
RTSSIMSFPQCSCYSRRGVL	1.73 ± 0.33
RVDTL	0.694 ± 1.1
RVDTLYKVHLSKIRPSGGST	-0.096 ± 0.75
RVFRASNDR	0.241 ± 1.1
RVIAYKANPVNTFSYPVWAE	-0.133 ± 0.44
RVLCICFEYINHRAGGSKSF	-0.08 ± 0.95
RVPCCGSYKGVFYEFTFSRG	0.957 ± 0.49
RVSCFRTRDRIFGVFTQSQV	-0.314 ± 1.2
RVSRFELAIVSVEGSYWVPE	0.607 ± 0.36
RVVVCRWVDRYGIAASGAIT	0.643 ± 0.54
RVWYGFYCELITTPRFASGV	-0.322 ± 1.7
RWAWVDYNLCRVCLTKYS	-0.161 ± 0.58
RWFRNAIGGIL	-0.586 ± 0.59
RWLPPLRVRIRDHTHIITDK	2.22 ± 0.17
RWMPFISLSVNLTGNYLIRL	2.25 ± 0.27
RWNRSSDTCLCLHSMMLT	-0.518 ± 1.1
RWPRCYYNLGKCTDISLTWS	2.56 ± 0.18
RWSAFSVYAWGAYKLRC	2.41 ± 0.11
RYARLMYASACCSSC	-0.404 ± 0.52
RYCHVLIVIAQANQSFKDVQ	7.725 ± 0.056

Substance	amyloid nucleation score
RYCYRGHMFLFQTSLFKCSS	-0.354 ± 0.83
RYHSPEYTARTLMG	0.264 ± 0.44
RYISYAKCRNYNGLIMYYLY	2.52 ± 0.11
RYRWRL	inactive
RYRWTSLVFLGMTQH	0.75 ± 0.38
RYSCY	0.152 ± 0.6
RYSSVKLEMKSQVVIELTLI	1.09 ± 0.76
RYVETNSGAE	0.669 ± 0.43
RYYCFPTQLIHLTTT	-0.755 ± 0.55
RYYLMVFFKWIFEIWKMVLK	-0.646 ± 0.28
RYYMGTIWILGEFGSLFWMM	0.06 ± 0.39
SACFVARSVVCDWGCAGYMF	2.67 ± 0.28
SACLQVWE	0.284 ± 0.4
SACSESSVIWTNFH	0.292 ± 0.39
SALILVFFYWA	1.31 ± 0.3
SALLEQRLSSGLDVAISLRI	-0.368 ± 0.9
SANDFKMWGMVDKFGVMVLL	inactive
SAPMVFESDPREFAAGMSRL	-0.53 ± 0.39
SARRRRYGEAGSLGHELQWT	0.675 ± 0.78
SATTIFFRYSKIREFRLVFG	inactive
SAVTDQLMV	0.119 ± 0.45
SAWSGR	0.104 ± 0.3
SAYSILSTMFIYFVKSQGTD	3.38 ± 0.058
SCACYGWSVYSLGNANRVLS	0.465 ± 0.69
SCDMYQYEIV	inactive

Substance	amyloid nucleation score
SCGNVGQRVVNIQYVGNSRF	6.34 ± 0.077
SCGVLVSLFLYPKLNFGFYL	0.419 ± 0.4
SCIVLYMKGSGISCTNYTYC	6.094 ± 0.054
SCKYSAQNLWHLFYRNSLSS	-2.29 ± 2.1
SCLAIRTSYCNEELSIESMQ	-0.8 ± 0.55
SCLCFLNPTNFEKLLISFVP	0.725 ± 0.53
SCNFLYGRRLFL	-0.127 ± 0.55
SCRSLDAMDKSWS	1.5 ± 0.52
SCSGSRMRELAAVYTVIIEY	-1.04 ± 1.1
SCTCVQHPDGSYAFEIGAAN	0.009 ± 0.96
SCVFLGSWWRCGWMPGSHVP	1.93 ± 0.29
SCVSSLYCH	0.057 ± 0.65
SCVYNWFIKVLPKVSTMSGD	0.41 ± 0.52
SCYVWDCENGSTLFIFVARR	inactive
SDEMVW	2.65 ± 0.11
SDFNNTFIYSGEKQVLISTC	-0.147 ± 0.34
SDFRMTGLLTWYRSI	-0.228 ± 0.51
SDHRTW	0.743 ± 0.42
SDKEVVSLQEVHTQSEGSEG	0.174 ± 0.27
SDPCKCTYCSYLSLDITLYA	0.05 ± 0.23
SDRDVVRVIYNSVGGTVWFG	1.07 ± 0.19
SDRKEA	-0.444 ± 0.69
SDRQVSSSRTYKHSTTSLGC	inactive
SDSGCEGESCQNRLISVGLL	-0.084 ± 0.46
SDVVGGYWEDKTSSYGSRLM	0.423 ± 0.52

Substance	amyloid nucleation score
SDYTYAFPCMRGWCWYFAVS	-0.691 ± 1.7
SEGMCIKLPVALNYSYVHLG	3.36 ± 0.088
SELRSWFL	-0.109 ± 1.2
SEMGINQKFLLGVQDTLHRY	-1.45 ± 1
SESSYGSSSRTTESSVCVSG	-0.008 ± 0.52
SETFKRE	-0.328 ± 0.66
SETYVLLKNPSDNIMQKWCV	0.147 ± 0.79
SEVQAPHIRCINIRALYLRN	2.08 ± 0.39
SEWDFGDCENFKVSYLVVTQ	-0.408 ± 0.4
SEYMLRSNIVFPRWIS	0.35 ± 0.71
SFAII	0.91 ± 0.3
SFCPSMSNYTCIFPSTNLTY	7.033 ± 0.053
SFDNCLFVVVAAAIVNQPVC	5.83 ± 0.09
SFFFSRVGSLFCLRFYDVFG	-0.858 ± 1.3
SFFRFVQNVSRSAGVSDSAM	-0.508 ± 0.42
SFGKVPFDLPKNFPRVSSVT	-0.276 ± 0.33
SFIMSNS	0.075 ± 0.41
SFISKLLNYVVAFCVVCDEI	0.127 ± 0.5
SFLCAFICHYTDVFVHLARS	1.49 ± 0.54
SFLCCRVFLKSRRCRCGFMQ	6.01 ± 0.046
SFLDCLRCCKCAGMR	1.5 ± 0.18
SFMSGSFEWPRSYRALGFKA	-0.719 ± 1.2
SFMVFYNLVCLHMMSNFVAL	0.377 ± 0.68
SFNNMANMAYYRVRGVLVL	-0.438 ± 0.6
SFNVNLGSHRDVMIVFSF	6.24 ± 0.064

Substance	amyloid nucleation score
SFRSLFVFYDN	inactive
SFSEICWVVGHYMNGFSQMR	1.89 ± 0.47
SFSVVCRLKRAFGLAVIVRR	0.184 ± 1.2
SFVFGHIVKK	2.72 ± 0.086
SFVIFCRKGNWEWDD	-0.671 ± 0.37
SFVIYSKKCKNGSVNTVACS	0.142 ± 0.62
SFVVGNGYMVGWWFITAHVA	0.499 ± 0.41
SFWNSLV	0.468 ± 1.2
SFYYWHPIALVWYGGARYKC	1.35 ± 0.43
SGFGYSYCTLHCRTFWCLRP	0.972 ± 0.3
SGGPWVNCNFNT	0.494 ± 0.47
SGIEAFNRIIGVCCVLEAGR	3.58 ± 0.19
SGIGSMWSQLKDSV	0.136 ± 0.59
SGKNRYIVSSCSWLWAREDL	0.424 ± 1
SGLLVITFVNEFLYKNVYPL	1.95 ± 0.25
SGMCTYL	0.513 ± 0.33
SGNCQSRFVVNGNHKC	0.371 ± 0.5
SGNSSFIVILNKRTFRLCRY	1.41 ± 0.18
SGQIQFIMIR	0.727 ± 0.67
SGRPLEYTDNGEQDRMWWQS	-0.044 ± 0.88
SGSMVRDRW	1.83 ± 0.27
SGSQY	-1.26 ± 1.7
SGVINTAAMIRTDPWRVLDG	0.765 ± 0.42
